From patent publication CN114395042A (BEIJING COONOXIN ZONGCHENG SCIENCE AND TECH CO, dated 2022)
Numbering of substitutions follows the chain as printed.

T1: hIL-33WT (human, UniProt O95760 112-270, limits assumed)
T1 sequence (looked up): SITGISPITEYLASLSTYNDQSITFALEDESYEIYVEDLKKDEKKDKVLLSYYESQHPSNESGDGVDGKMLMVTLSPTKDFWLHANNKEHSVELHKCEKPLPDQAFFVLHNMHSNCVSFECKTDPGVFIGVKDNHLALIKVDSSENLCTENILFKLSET

T2: 人IL33-his重组蛋白 (human, UniProt O95760 112-270)
T2 construct: range 112-270; also called human IL-33; not shown: his tag
T2 sequence (looked up): T1 sequence (looked up)

B1: ANB020 (antibody, V domains shown)
VH: QVQLMQSGAEVKKPGASVKVSCKASGYTFTSYWMHWVRQAPGQGLEWMGTIYPRNSNTDYNQKFKARVTMTRDTSTSTVYMELSSLRSEDTAVYYCARPLYYYLTSPPTLFWGQGTLVTVSS
VL: DIQLTQSPSFLSASVGDRVTLTCKASQDVGTAVAWTQQKPGKAPKLLIYWASTRHTGVPSRFSGSGSGTEFTLTISSLQPEDFATYYCQQAKTYPFTFGSGTKLEIK
notes: The variable regions were cloned into vectors holding human IgG1 light and heavy chain constant regions; also called 对照抗体ANB020; 对照抗体
B2: ch25D8 (antibody, human IgG1, kappa, V domains shown)
VH: QVQLQQSGTELVKPGASVKLSCKTSGYTFTSYWIQWVKQRPGQGLGWIGEIFPGTGTTYYNEKFKGKATLTTDTSSTTAYMQLSSLTSEDSAVYFCARRIRDYYGSNYFDYWGQGTTLTVSS
VL: QIVLTQSPAIMSASPGEKVTITCSASSSVSYMHWFQQKPGTSPKLWIYRTSNLASGVPDRFSGSGSGTSYSLTISRMEAEDAATYYCLQRSTYLFMFGAGTKLELKR
notes: also called 嵌合抗体ch25D8; 25D8分子的嵌合抗体
B3: ch25H12 (antibody, human IgG1, kappa, V domains shown)
VH: EVQLQQSGAELVKPGASVKLSCTASGFNIKDTYIHWVKQRPEQGLEWIGRIDPTADNTKYHPKFQGKATLTADTSSNTAYLQLSSLTSEDTAVYFCARGSSYALDYWGQGTSVTVSS
VL: B2 VL with L88Q, T92S
notes: Human-mouse chimeric IgG1/kappa expressed in HEK293 and purified on Protein A; also called 嵌合抗体ch25H12
B4: h25D8H1L1 (antibody, human IgG1, kappa, V domains shown)
VH: QVQLVQSGAEVKKPGASVKLSCKTSGYTFTSYWIQWVRQAPGQGLEWIGEIFPGTGTTYYNQKFQGRATLTTDTSTTTAYMELSSLRSEDTAVYFCARRIRDYYGSNYFDYWGQGTTLTVSS
VL: DIQLTQSPSSMSASVGDRVTITCRASSSVSYMHWFQQKPGKAPKLWIYRTSNLQSGVPSRFSGSGSGTDYTLTISSMQPEDFATYYCLQRSTYLFMFGQGTKLELKR
notes: also called 人源化抗体h25D8H1L1; hzVH1/hzVL1

Tests used:
[1] = biological target: T1, hIL-33WT; assay: cell-based or functional assay
[2] = biological target: T2, 人IL33-his重组蛋白; assay: BLI (ForteBio), antibody captured on AHC probe, IL33-his 15-60 nM in solution, 1:1 fit
[3] = biological target: T2, 人IL33-his重组蛋白; assay: BLI (ForteBio), Example 3

Binder	IC50 of inhibition of IL-33-stimulated IL-5 production by KU812 cells [1]	Kd [2]	koff [2]	kon [2]	Kd [3]	koff [3]	kon [3]
B1	5.82 µg/mL	6.7 nM	0.000419 s⁻¹	62500 M⁻¹ s⁻¹			
B2		0.9 nM	7.53e-05 s⁻¹	83600 M⁻¹ s⁻¹	0.617 nM	0.000472 s⁻¹	766000 M⁻¹ s⁻¹
B3		77.7 nM	0.000619 s⁻¹	7970 M⁻¹ s⁻¹			
B4	0.677 µg/mL				0.61 nM	0.000366 s⁻¹	600000 M⁻¹ s⁻¹
